± gives the half width of the 95% confidence interval.
How the values were obtained:
[1] = folding stability dG unfold from trypsin proteolysis; higher = more stable
How it was run: (§1)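 K50 was inferred by Bayesian fitting of sequencing counts obtained after protease digestion of designed mini-proteins. Unfolding free energy was derived by comparison with a sequence-predicted unfolded-state K50 and a shared folded-state K50, for each protease or both combined. The mini-proteins were under 80 residues, had no cysteine, were carried in a PA-tagged cDNA display construct, and were kept only if AlphaFold2 dimer inter-PAE exceeded 15.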

[2] = folding stability dG unfold from chymotrypsin proteolysis; higher = more stable
How it was run: as §1

[3] = folding stability dG unfold (combined trypsin and chymotrypsin); higher = more stable
How it was run: as §1

| Sequence | folding stability dG unfold [1] [kcal/mol] | folding stability dG unfold [2] [kcal/mol] | folding stability dG unfold [3] [kcal/mol] |
| --- | --- | --- | --- |
| SAGGSAGGSADDGDPNKQEPKPEVKVRPIEIRMSFAYYPPNGEPWMFSIEIRIWVYDGGLVSAGGSAGGSAG [r3_380_TrROS] | 3.85 ± 0.1 | 5.61 ± 0.095 | 5.34 ± 0.16 |
| SAGSFKVTLELVLPNGEKLTVENPEDVLAAIKALPSNVTVRVSTPGESETISITGSDGSVFALKIERFKSAG [r5_506_TrMRF] | 1.68 ± 0.045 | 1.97 ± 0.089 | 1.85 ± 0.1 |
| SAGGSAGGSAGKPSVTILVLTDSPEDALALAKPLLEAGYEVKLELFRLPDDRYLALITVPSAGGSAGGSAGG [r11_677_TrMRF] | 2.13 ± 0.041 | 3.36 ± 0.039 | 2.92 ± 0.094 |
| SIKIERDGDKIKITFKVPGPFRIMIFNNDEIQETTIPPGKPVKIEIDIPKGNFYIMIYFPGKPLAQIPFKSA [r9_411_TrROS] | 2.27 ± 0.19 | 1.96 ± 0.17 | 2.19 ± 0.31 |
| SAGGSMVLVRVERTPDGTLRVTALFFFDGRLLRVERTFRLAPDGRIVDADVSVEELPVPPSEVPVLSAGGSA [r2_474_TrMRF] | 3.39 ± 0.16 | 4.45 ± 0.071 | 4.11 ± 0.099 |
| SAGGSAGGSMYLIRVTTEDNIELTFLVSEDDIEAFEAFAKALAELFPVPVKVEIEPVEEGEEVSAGGSAGGS [r12_385_TrMRF] | 3.2 ± 0.16 | 3.74 ± 0.043 | 3.54 ± 0.086 |
| SAGGSAGGSAGGAPTIRVELRHPNGERIELEFPADADVIFVPEDYEITRIEIVPADDPASAGGSAGGSAGGS [r10_571_TrMRF] | 1.51 ± 0.062 | 1.837 ± 0.018 | 1.69 ± 0.052 |
| SAGGSAGGSAGSKKAVIGGDGATVTYYPPLGYALVTFPDGTAALVDLKTGEIVEIAKTNDSAGGSAGGSAGG [r11_149_TrMRF] | 1.04 ± 0.059 | 2.29 ± 0.037 | 2 ± 0.11 |
| SDKIVKLIKKIMEEMGLPITKITDVEPGWIVIRMPNGWKIDIEIDPDDPDVIDIKWQPDPNGGMYMVIPVSA [r9_809_TrROS] | 2.03 ± 0.078 | 2.65 ± 0.069 | 2.6 ± 0.21 |
| SAGGSAGGSAGGPPILLPKFDGSVKEVLTLPTEDRLLLVAYNPETGKLFVFEIKDPDEFSAGGSAGGSAGGS [r10_772_TrMRF] | 0.694 ± 0.044 | 1.65 ± 0.063 | 1.34 ± 0.14 |
| SAGGSALKNSTLRITVERGNVPFTVEVKLKSVVVDLESGKVDVELPEEFKKLFKGPVKILSLEIPDSAGGSA [r15_710_TrMRF] | 0.884 ± 0.057 | 1.82 ± 0.11 | 1.53 ± 0.17 |
| SAGGSAGGSAGGSGAGTLITVTVGGKEVPVTVDPSSDRVSITLPEPTSLTLSVEDPARASAGGSAGGSAGGS [r10_1185_JUSTAS] | 0.593 ± 0.1 | -0.602 ± 0.3 | 0.208 ± 0.17 |
| SAGGSASSPGTPVKLNVNAIITKKLPDGTITTEPGRTLDLPEEEAIEYLKSLPSSYSVEIESIVVESAGGSA [r15_833_JUSTAS] | -0.347 ± 0.15 | 0.0371 ± 0.15 | -0.115 ± 0.087 |
| SAGGMTLLKVRIYIPSEPKPIEVELFTDGDPEKAEEAVRELVEELGYPDAKVEVELLEVDPSDPRFLGSAGG [r13_682_TrMRF] | 2.38 ± 0.041 | 3.984 ± 0.024 | 3.57 ± 0.051 |
| SAGGSAGGSKKKPPPVKVKIRVVVDGKVYEIEIEVDPNMTVEEIKEALRKLLGPDIKEVEIEPSAGGSAGGS [r12_300_TrROS_Hall] | 2.91 ± 0.29 | 1.93 ± 0.25 | 3.07 ± 0.64 |
| SAGGEVKITVEKKGDGTVTVTITVKAKSLEDLLKALESLPGVEITKVEIEKDKETNEYTIRVTIKVKPSAGG [r13_796_TrROS_Hall] | 2.67 ± 0.068 | 4.07 ± 0.11 | 3.64 ± 0.15 |
| SRLTVTSEVDPNGNSSTSTITYYDPSTGQPYTLTVTITKLPDGTYKVTITFPSNSTTTTFTLAPDETINLSA [r9_1220_JUSTAS] | 2.58 ± 0.2 | 3.27 ± 0.055 | 3.04 ± 0.22 |
| SAGGMPLGITITETVTPTPDGSVVVTLTVSLPPDEPLTITFPISGETVSFPPDETITLKVTVPPGLSSAGGS [r16_56_JUSTAS] | 1.7 ± 0.09 | 0.953 ± 0.034 | 1.4 ± 0.093 |
| KPKLTIEYDEETGKFTITLPDGRKIEIELKKDGTVVRIRVKENGKEREIELTLDELKALLDNKDVTIEIIPS [r1_18_TrROS_Hall] | 3.95 ± 0.13 | 3.45 ± 0.2 | 3.81 ± 0.23 |
| SAGGSAGGSMKKITLTLTFPNGTTETLDITPLLEKSGLSPEEAIQLLKEELPENVTYKVTTEGSAGGSAGGS [r12_399_JUSTAS] | 2.69 ± 0.083 | 3.152 ± 0.03 | 3.01 ± 0.084 |
| SAGGSAGGSAGGGKVTAVVTFTGPDGSKVVLAFHPDGSVTVRYFDPNGELVGEKTFAGAGSAGGSAGGSAGG [r7_544_TrMRF] | 3.2 ± 0.19 | 4.56 ± 0.1 | 4.27 ± 0.14 |

Reference: the supplement of paper PMC12764529
